Measured values reported in US6013499, “Rho target protein kinase p160” (Kirin Beer Kabushiki Kaisha, dated 2000).

Molecular target: RhoA fused to LexA DNA-binding domain (yeast two hybrid) (human)
Test: yeast two hybrid, β-galactosidase activity

B1: M2-6 (974-1024) fused to the VP16-activation domain (yeast two hybrid) (other)
chain: KLEKEEEISNLKAAFEKNINTERTLKTQAVNKLAEIMNRKDFKIDRKKANT
  binding result: no binding

B2: M2-9 (906-1004) fused to the VP16-activation domain (yeast two hybrid) (other)
chain: RGLLEEQYFELTQESKKAASRNRQEITDKDHTVSRLEEANSMLTKDIEILRRENEELTEKMKKAEEEYKLEKEEEISNLKAAFEKNINTERTLKTQAVN
  binding result: no binding
